Tested on: T1, O=C1O[C@H]([C@@H](O)CO)C(O)=C1O
T1 construct: expressed in transfected cells; host or cells: HEK-TREx cells, tetracycline-induced
Test: hSVCT2 direct uptake assay in HEK-TREx-hSVCT2 cells (LC-MS-MS)
Format: cell-based, human
Settings: other: HEK-TREx-hSVCT2 cells induced to express hSVCT2
Method: A modified direct uptake assay was developed to determine the ability of test compounds to be transported into HEK-TREx cells induced to over-express hSVCT2. Four concentrations (bracketing the affinity as measured by competition assays) per compound were routinely tested. Non-specific uptake was determined by measuring the uptake into cells not induced to express the transporter (“no tet”).
The direct uptake assays were prepared as follows: Compounds were prepared for assay by diluting a 100 mM stock concentration (in DMSO or water, depending on compound solubility) to the appropriate working concentration. Typically, four concentrations bracketing the IC50 were tested. The highest test concentration for each compound was made in an Eppendorf tube and diluted into HBSS. The samples were robustly vortexed and centrifuged for 10 minutes at 13,200 rpm to spin down any precipitate. The supernatant from these samples (˜150 μl/well) was carefully removed and placed into six wells of row A (cmpd 1: A1-6; cmpd 2: A7-12) or row E (cmpd 3: E1-6; cmpd 4: E7-12) of a 96-well polypropylene “compound” plate. Three additional 2-fold dilutions were made in the subsequent rows (B-D or […]) in HBSS. […]

hSVCT2 (Homo sapiens)
Km: 14 µM

— patent US7625718B2, “SVCT2 transporters expressed in blood brain barrier cells” (XenoPort, Inc., priority 2005, dated 2009)
